Data published in patent US20240324599A1, “PESTICIDAL ENZYMES FOR USE ON NEMATODES, INSECTS, AND MOLLUSKS” (priority 2023, published 2024).

Tests used:
[1] = tested on: soybean cyst nematode (SCN, Heterodera glycines); experiment: Controlled environment soybean seed treatment trial: SCN cysts on roots; assay type: in vivo; settings: for % Comparison to Control: base control = 100%
Steinernema feltiae = experiment: In-vitro plate assay: Steinernema feltiae juvenile death after direct treatment; assay type: in vivo; settings: 40 μL per well (ILEVO 20 μL)
Experimental: To determine the effects of enzymes on an additional soil-dwelling nematode species (Steinernema feltiae), a NemAttack™ package containing approximately 5 million S. feltiae juveniles was purchased from ARBICO Organics. The nematodes arrived already hatched and dispersed within a powder. To prepare the nematodes for use, an aliquot of the dry nematode mixture was rehydrated in water. The liquid nematode mixture was adjusted to a concentration of 20-30 nematode juveniles per 10 μL. The free enzymes Esterase B (SEQ ID NO: 89) and Chitinase 19F (SEQ ID NO: 182) were produced as described in Example 2.
Potato dextrose agar media containing chloramphenicol and chlortetracycline was prepared and added to sterile twenty-four-well cell culture plates (1 mL per well). The plates were divided according to the pre-determined N-value for each treatment (N=12-24). […]
To quantify the treatments' effects on nematode viability, the nematodes were examined under a dissecting microscope at 20× magnification. Initial (T0) values for the number of live juveniles, number of dead juveniles and total number of juveniles were recorded immediately after preparation of each well. […] Approximately 20-22 hours post addition of juveniles, the plates were evaluated, and the number of live juveniles, dead juveniles and total number of juveniles were recorded. […]

[2] = tested on: Fall armyworm (Spodoptera frugiperda); experiment: Diet-surface overlay (DSO) bioassay; assay type: in vivo; settings: for Larva Stage I / Larva Stage II / Larva Stage III / Larva Stage IV / Dead Larva: number of individuals
Method in brief: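 Enzyme treatments (0.1 mL) were spread and dried on artificial diet (no antibiotics), then one first-instar larva was placed per cell, 16 or 32 larvae per treatment. Trays were held at 27° C., 16:8 h light-dark, and developmental categories were counted after 7 days. Controls were filtered water and Btk spores at 1000 ppm.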

[3] = tested on: soybean cyst nematode (SCN); experiment: Soil application around soybean plants: SCN cysts per gram of root tissue; assay type: in vivo, Heterodera glycines; settings: Table 34; for Average cysts per g of root tissue: 0.5 mL/plant to soil, soybean 2830E3, 3 weeks, water control 139.8; for % Comparison to Control: water control = 100%, change in brackets
Experimental: To determine the efficacy of nematicidal enzymes applied to soil, a controlled environment trial was performed with 7-day old soybean plants (variety 2830E3) grown in pots. Enzymes were produced as described in Example 2. Prior to inoculation, 0.5 mL of neutral protease (SEQ ID NO: 127), esterase B (SEQ ID NO: 89), or chitinase 19F (SEQ ID NO: 182) free enzyme solution was applied to the soil around the base of each plant, or 0.5 mL of water was applied for the control (30 plants per treatment). Then, hatched SCN juveniles were applied to the soil around each plant as described in Example 2, and three weeks later, cysts per gram of root tissue was determined as described in Example 2. The data was analyzed as in Example 2 and appears in Tables 33 and 34.
To determine the efficacy of recombinant strains applied to soil, a controlled environment trial was performed as described in Example 18 above (Reduction of soybean cyst nematode reproduction by enzymes applied to soil), with the exception that a recombinant strain expressing neutral protease (SEQ ID NO: 127) was applied instead of a free enzyme solution. The recombinant strain was produced as in Example 3, and the treatment applied to soil as a whole cell broth.

[4] = Table 11, free enzyme seed treatment 2 fl oz/unit, soybean P18A98X, ILEVO 0.15 mg AI/seed, 3 weeks after inoculation, base control 71.4

B1: Streptomyces coelicolor Chitinase F (Chi19F) (protein)
chain: ASCSSYHAWSADANYNTGDIVRYTDGKAYIAEHANPGYDPLISTWYWDPYACDGGSQTPVGNFVVSEAQFNQMFPGRNSFYTYSGLTAALSAYPGFANTGSDTTKKQEAAAFLANVSHETGGLVYIVEQNTANYPHYCDWNQPYGCPAGQAAYYGRGPIQLSWNFNYKAAGDALGIDLLGNPWLVQNDAAVAWKTGLWYWNTQSGPGTMTPHNAMVNGAGFGQTIRSINGSLECDGKNPAQVQSRVTKYQQFAQILGVSPGGNLYC
modifications: Chitinase F (Chi19F); Streptomyces coelicolor
% Comparison to Control ([1]; Table 11): 68%
Average cysts per g of root tissue [1, 4]: 48.8 cysts per g of root tissue
% Comparison to Control ([1]; Table 12): 79%
Average cysts per g of root tissue ([1]; Table 12, seed treatment 2 fl oz/unit, ILEVO 0.15 mg AI/seed, base control 376.9): 296.9 cysts per g of root tissue
Difference in Percent Death of Nematodes for 0 to 22 Hours (Steinernema feltiae; Table 24, water control 7%): 17%
Larva Stage I ([2]; Table 48, chitinases, n = 32): 4
Larva Stage II ([2]; Table 48, chitinases, n = 32): 14
Larva Stage III ([2]; Table 48, chitinases, n = 32): 5
Larva Stage IV ([2]; Table 48, chitinases, n = 32): 6
Dead Larva ([2]; Table 48, chitinases, n = 32, dose per treatment in mU/mL Diet): 3
Average cysts per g of root tissue [3]: 95.6 cysts per g of root tissue
% Comparison to Control [3]: 68% (−32%)

B2: Bacillus subtilis Esterase (EstB without signal sequence) (protein, listed as Bacillus subtilis)
chain: ESVHNPVVLVHGISGASYNFFAIKNYLISQGWQSNKLYAIDFYDKTGNNLNNGPQLASYVDRVLKETGAKKVDIVAHSMGGANTLYYIKYLGGGNKIQNVVTLGGANGLVSSTALPGTDPNQKILYTSIYSLNDQIVINSLSRLQGARNIQLYGIGHIGLLSNSQVNGYIKEGLNGGGLNTN
modifications: Esterase (EstB H191 without signal sequence)
% Comparison to Control ([1]; Table 11): 27%
Average cysts per g of root tissue [1, 4]: 19.6 cysts per g of root tissue
Average cysts per g of root tissue ([1]; Table 15, seed treated with whole cell broth, base control 59.8): 56.3 cysts per g of root tissue
% Comparison to Control ([1]; Table 15, whole cell broth): 94%
% Comparison to Control ([1]; Table 25): 80%
Average cysts per g of root tissue ([1]; Table 25, soybean 3230E3, dried (PVP) formulation 0.04 units/seed, liquid 2 fl oz/unit, base control 289.9): 233.2 cysts per g of root tissue
Difference in Percent Death of Nematodes for 0 to 20 Hours (Steinernema feltiae; Table 23, water control 3%): 33%
Larva Stage I ([2]; Table 50, esterases, n=32): 3
Larva Stage II ([2]; Table 50, esterases, n=32): 4
Larva Stage III ([2]; Table 50, esterases, n=32): 14
Larva Stage IV ([2]; Table 50, esterases, n=32): 10
Dead Larva ([2]; Table 50, esterases, n=32, dose per treatment in U/mL Diet): 1
individuals with delayed development ([2]; text to Table 50): 67%
Average cysts per g of root tissue [3]: 117.3 cysts per g of root tissue
% Comparison to Control [3]: 84% (−16%)
